# Measured values taken from patent publication US20240059799A1 (Pfizer, published 2024).
# Substitutions are numbered along the chain they refer to.
# T1: recombinant human TL1A (human, UniProt O95150 71-251)
# T1 construct: The ELISA method says only 'recombinant TL1A' coated on plates; homotrimeric cytokine; also called TNFSF15; recombinant TL1A
# T1 chain: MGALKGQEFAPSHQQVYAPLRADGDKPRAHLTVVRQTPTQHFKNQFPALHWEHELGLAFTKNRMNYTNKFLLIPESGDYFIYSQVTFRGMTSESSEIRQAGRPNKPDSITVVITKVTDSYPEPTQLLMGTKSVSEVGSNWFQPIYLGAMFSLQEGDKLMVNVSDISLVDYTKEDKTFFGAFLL
# B1: TL1A-0002 (antibody, human IgG1, kappa, V domains shown)
# VH: QVQLVQSGAEVKKPGASVKVSCKASGYDFTYYGISWVRQAPGQGLEWMGWISTYNGNTHYARMLQGRVTMTTDTSTRTAYMELRSLRSDDTAVYYCARENYYGSGAYRGGMDVWGQGTTVTVSS
# VL: EIVLTQSPATLSLSPGERATLSCRASQSVSSYLAWYQQKPGQAPRLLIYDASNRATGIPARFSGSGSGTDFTLTISSLEPEDFAVYYCQQRSNWPWTFGQGTKVEIKR
# notes: human IgG1 effector-function-minimized / human kappa; also called parental TL1A-0002 antibody
# B2: TL1A-0252 (antibody, V domains shown)
# VH: B1 VH with G56T, R62P, M63S, R77S, N100S, Y107F
# VL: DIQMTQSPSSLSASVGDRVTITCRASQSVSSYLAWYQQKPGKAPKLLIYDASNRATGVPSRFSGSGSGTDFTLTISSLQPEDFATYYCQQRSNWPWTFGQGTKVEIKR
# notes: IgG1 effector-minimized/kappa
# B3: TL1A-0264 (antibody, human IgG1, kappa, V domains shown)
# VH: B1 VH with F29Y, G56T, N57V, R62P, M63S, R77S, N100S, Y107F
# VL: B2 VL
# notes: human IgG1 effector-function-minimized / human kappa
# B4: TL1A-0248 (antibody, V domains shown)
# VH: B1 VH with G56T, N57G, R62Q, M63K, R77S, N100S, Y107F
# VL: B2 VL
# notes: IgG1 effector-minimized/kappa
# B5: TL1A-0267 (antibody, human IgG1, kappa, V domains shown)
# VH: B1 VH with F29Y, G56T, R62P, M63S, R77S, N100S, Y107H
# VL: B2 VL
# notes: as for B3
# B6: TL1A-0243 (antibody, V domains shown)
# VH: B1 VH with G56D, R62P, M63S, R77S, N100S, Y107H
# VL: B2 VL
# notes: IgG1 effector-minimized/kappa
# B7: TL1A-0249 (antibody, V domains shown)
# VH: B1 VH with G56T, N57G, R62Q, M63K, R77S, N100S, Y107H
# VL: B2 VL
# notes: IgG1 effector-minimized/kappa
# B8: TL1A-0189 (antibody, human IgG1, kappa, V domains shown)
# VH: B1 VH with R77S
# VL: B2 VL
# notes: IgG1 effector-minimized/kappa
# B9: TL1A-0255 (antibody, V domains shown)
# VH: B1 VH with N55G, R62P, M63S, R77S, N100S, Y107H
# VL: B2 VL
# notes: IgG1 effector-minimized/kappa
# B10: TL1A-0269 (antibody, V domains shown)
# VH: B1 VH with F29Y, N55G, R62P, M63S, R77S, N100S, Y107H
# VL: B2 VL
# notes: IgG1 effector-minimized/kappa
# B11: TL1A-0273 (antibody, human IgG1, kappa, V domains shown)
# VH: B1 VH with T30S, G56D, R62Q, M63K, R77S, N100S, Y107H
# VL: B2 VL
# notes: as for B3
# B12: TL1A-0246 (antibody, V domains shown)
# VH: B1 VH with G56T, N57G, R62P, M63S, R77S, N100S, Y107F
# VL: B2 VL
# notes: IgG1 effector-minimized/kappa
# B13: TL1A-0256 (antibody, human IgG1, kappa, V domains shown)
# VH: B1 VH with F29Y, G56D, R62P, M63S, R77S, N100S, Y107F
# VL: B2 VL
# notes: as for B3
# B14: TL1A-0274 (antibody, human IgG1, kappa, V domains shown)
# VH: B1 VH with T30S, G56T, N57G, R62P, M63S, R77S, N100S, Y107F
# VL: B2 VL
# notes: as for B3
# B15: TL1A-0271 (antibody, human IgG1, kappa, V domains shown)
# VH: B1 VH with T30S, G56D, R62P, M63S, R77S, N100S, Y107H
# VL: B2 VL
# notes: as for B3
# B16: TL1A-0254 (antibody, V domains shown)
# VH: B1 VH with N55G, R62P, M63S, R77S, N100S, Y107F
# VL: B2 VL
# notes: IgG1 effector-minimized/kappa
# B17: TL1A-0270 (antibody, human IgG1, kappa, V domains shown)
# VH: B1 VH with T30S, G56D, R62P, M63S, R77S, N100S, Y107F
# VL: B2 VL
# notes: as for B3
# B18: TL1A-0253 (antibody, V domains shown)
# VH: B1 VH with G56T, R62P, M63S, R77S, N100S, Y107H
# VL: B2 VL
# notes: IgG1 effector-minimized/kappa
# B19: TL1A-0272 (antibody, human IgG1, kappa, V domains shown)
# VH: B1 VH with T30S, G56D, R62Q, M63K, R77S, N100S, Y107F
# VL: B2 VL
# notes: as for B3
# B20: TL1A-0258 (antibody, human IgG1, kappa, V domains shown)
# VH: B1 VH with F29Y, G56D, R62Q, M63K, R77S, N100S, Y107F
# VL: B2 VL
# notes: as for B3
# B21: TL1A-0259 (antibody, V domains shown)
# VH: B1 VH with F29Y, G56D, R62Q, M63K, R77S, N100S, Y107H
# VL: B2 VL
# notes: IgG1 effector-minimized/kappa
# B22: TL1A-0261 (antibody, human IgG1, kappa, V domains shown)
# VH: B1 VH with F29Y, G56T, N57G, R62P, M63S, R77S, N100S, Y107H
# VL: B2 VL
# notes: as for B3
# B23: TL1A-0245 (antibody, V domains shown)
# VH: B1 VH with G56D, R62Q, M63K, R77S, N100S, Y107H
# VL: B2 VL
# notes: IgG1 effector-minimized/kappa
# B24: TL1A-0257 (antibody, human IgG1, kappa, V domains shown)
# VH: B1 VH with F29Y, G56D, R62P, M63S, R77S, N100S, Y107H
# VL: B2 VL
# notes: as for B3
# B25: TL1A-0260 (antibody, human IgG1, kappa, V domains shown)
# VH: B1 VH with F29Y, G56T, N57G, R62P, M63S, R77S, N100S, Y107F
# VL: B2 VL
# notes: as for B3
# B26: TL1A-0263 (antibody, human IgG1, kappa, V domains shown)
# VH: B1 VH with F29Y, G56T, N57G, R62Q, M63K, R77S, N100S, Y107H
# VL: B2 VL
# notes: as for B3
# B27: TL1A-0242 (antibody, V domains shown)
# VH: B1 VH with G56D, R62P, M63S, R77S, N100S, Y107F
# VL: B2 VL
# notes: IgG1 effector-minimized/kappa
# B28: TL1A-0251 (antibody, V domains shown)
# VH: B1 VH with G56T, N57V, R62P, M63S, R77S, N100S, Y107H
# VL: B2 VL
# notes: IgG1 effector-minimized/kappa
# B29: TL1A-0247 (antibody, V domains shown)
# VH: B1 VH with G56T, N57G, R62P, M63S, R77S, N100S, Y107H
# VL: B2 VL
# notes: IgG1 effector-minimized/kappa
# B30: TL1A-0265 (antibody, human IgG1, kappa, V domains shown)
# VH: B1 VH with F29Y, G56T, N57V, R62P, M63S, R77S, N100S, Y107H
# VL: B2 VL
# notes: as for B3
# B31: TL1A-0266 (antibody, human IgG1, kappa, V domains shown)
# VH: B1 VH with F29Y, G56T, R62P, M63S, R77S, N100S, Y107F
# VL: B2 VL
# notes: as for B3
# B32: TL1A-0262 (antibody, human IgG1, kappa, V domains shown)
# VH: B1 VH with F29Y, G56T, N57G, R62Q, M63K, R77S, N100S, Y107F
# VL: B2 VL
# notes: as for B3
# B33: TL1A-0042 (antibody, human IgG1, kappa, V domains shown)
# VH: B1 VH
# VL: B2 VL
# notes: TL1A-0002 heavy chain with light chain CDRs grafted onto IGKV1-39*01; human IgG1 effector-function-minimized / human kappa
# B34: TL1A-0244 (antibody, V domains shown)
# VH: B1 VH with G56D, R62Q, M63K, R77S, N100S, Y107F
# VL: B2 VL
# notes: IgG1 effector-minimized/kappa
# B35: TL1A-0268 (antibody, V domains shown)
# VH: B1 VH with F29Y, N55G, R62P, M63S, R77S, N100S, Y107F
# VL: B2 VL
# notes: IgG1 effector-minimized/kappa
# B36: TL1A-0275 (antibody, human IgG1, kappa, V domains shown)
# VH: B1 VH with T30S, G56T, N57G, R62P, M63S, R77S, N100S, Y107H
# VL: B2 VL
# notes: as for B3
# Target: T1, recombinant human TL1A
# Experiment: competition ELISA on coated recombinant TL1A; competitor biotinylated TL1A-0002
# Experimental: For this competition ELISA assay procedure, 96-well high binding plates (Corning, product number 3590) were coated with 1 μg/mL recombinant TL1A in 100 μL/well in Phospate Buffered Saline (PBS) overnight at 4° C. Plates were then blocked in PBS+0.02% casein solution and washed with PBS+0.05% Tween-20 following standard ELISA protocol. […] Plates were washed with PBS+0.05% Tween-20 following standard ELISA protocol, and Streptavidin-HRP (Southern Biotech, product number 7100-05) diluted to 1:10,000 in assay buffer was added to plates and incubated for 25-30 minutes at room temperature. Next, the plates were washed with PBS+0.05% Tween-20 following standard ELISA protocol, and then TMB substrate (BioFX Laboratories, catalog number TMBW-0100-01) was added to plates. Reactions were stopped after approximately 5 minutes by adding 0.18 M ortho-phosphoric acid to each well and absorbance was read at 450 nm.
Bioactivity relative to TL1A-0002 [fold],IC50 [nM],Binder
1,5,B1
2.7,13.5,B2
3.1,15.8,B3
3.2,16,B4
1.3,6.8,B5
2.9,14.5,B6
3.1,15.7,B7
0.8,3.8,B8
7.6,38.4,B9
7.5,37.7,B10
2.2,10.9,B11
2.6,13.3,B12
2.3,11.6,B13
2,10.1,B14
2.1,10.6,B15
9.2,46.3,B16
2.3,11.5,B17
2.7,13.4,B18

Bioactivity relative to TL1A-0002 [fold],IC50 [nM],Binder
2.3,11.6,B19
2.2,10.9,B20
3.7,18.4,B21
1.1,5.6,B22
3.2,16.2,B23
1.9,9.5,B24
1.3,6.8,B25
1.2,6.2,B26
3.2,16.2,B27
3.2,16.2,B28
2.4,12.2,B29
1.7,8.7,B30
1.3,6.6,B31
1.4,7.3,B32
0.8,4.2,B33
3.5,17.6,B34
9.6,48.2,B35
1.8,9,B36
